From the nanobody polyreactivity screen of Harvey et al. (2022) come the findings set out here.

The data set in a line: yeast display, Sf9 membrane polyspecificity reagent, FACS + sequencing; frameworks hold sequencing errors. The method in brief:
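Nanobodies from a synthetic yeast display library (Saccharomyces cerevisiae BJ5465), induced 36–48 hours with galactose, were stained 1 hour at 4 °C with 10% biotinylated, detergent-solubilized Sf9 membrane reagent, enriched on streptavidin microbeads, then FACS-sorted. Anti-HA (expression) and streptavidin (reagent binding) fluorescence set low and high (top ~1%) gates. Polyreactivity labels come from the gate of origin. Genes were colony-PCR amplified, MiSeq 2 × 250 sequenced and filtered by CDR length.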
Consider “QVQLVESGGGLVQAGGSLRLSCAASGSTIVYNAMGWYRQAPGKEREFVAAISWSGGSTYYADSVKGRFTISRDNAKNTVYLQMNSLKPEDTAIYYCAATSRSNGFRYYYWGQGTQVTVSS”, for which the “polyreactivity (PSR sort gate)” value is listed as “high polyreactivity”.

For the sequence “QVQLVESGGGLVQAGGSLRLSCAPSGFIFGSYAMGWYTQAPGKERELVAAISRSGGRTYYADSVKGRFTISRDNAKNTVYLQMNSLKPEDSAVYYCAAVHLLVYPTYDSWGQGTQVTVSS”, the “polyreactivity (PSR sort gate)” value is “high polyreactivity”.

Turning to “QVQLQESGGGLVQAGGSLRLSCAASRNISGSSDLGWYHQAPGKEREFVASITSGGTTYYADSVKGRFTISRDNAKNTVYLQMNSLKPEDTAVYYCAVGDPADAEFGYWGQGTQVTVSS”, the “polyreactivity (PSR sort gate)” value was “low polyreactivity”.

On to “QFQLVESGGGLVQAGGSLRLSCAASGSIFEPNAMGWYRQAPGKEREFVAAISGSGGSTYYADSVKGRFTISRDNAKNTVYLQMNSLIQEDTAVYYCATRGKRSYFRTFYYWGQGTQVTVSS”, for which the “polyreactivity (PSR sort gate)” value is on record as “high polyreactivity”.

As to “QVQLVESGGGVVQAGGSLRLSCAASGSIFDPYAMGWYRHARGKERELVAALNSDGSTNYADSVKGRFTISRDNAKNTDYLQLNSLKPEDTAVYYCAARTFTLRGDDSWGQGSQVTVSS”, the “polyreactivity (PSR sort gate)” value is “low polyreactivity”.

Turning to “QVQLVESGGGLVQAGGSLRLSCAASGSTFRYYVMGWYRPAPGKERELVAAITRGGSTNYADSVKGRFTISRDNAKNTVYLQMNSLKPEDTAVYYCAARGGWKRPFGYQLQYDYWGQGTQVTVSS”, the “polyreactivity (PSR sort gate)” value is “high polyreactivity”.

Regarding “QVQLVESGGGLVQAGGSLRLSCAASGSIFLTNAMGRYRQAPGKERELVAAIRSGGSTSYADSVKGRLTISRDNAKNTVYLQMNSLKPEDTAVYDCNAESDSRNYKVHPSGIYEYWGQGTQVTVSS”, the “polyreactivity (PSR sort gate)” value is given as “low polyreactivity”.

Take “QVQLVESGGGLVQAGGSLRLSCAASGFIFPYYAMGWYRQAPGKDRELVAAISQSGGSTYYADSVKGRFTISRDYAKNTVYLQMNSLKPEDTEVYYCAKFIPSYHDGDYWGQGTQVTVSS”: the “polyreactivity (PSR sort gate)” value is on record as “low polyreactivity”.

For “QVQLVESGGGLVQAGGSLRLSCAASGRTFPGYAMGWYRQAPGKERELVAAITSSGDDTYYADSVKGRFTISRDNAKNTVYLQMYSLKPEDTAVYYCRLFRRSADSSFDYEYWGQGTQVTVSS”, the “polyreactivity (PSR sort gate)” value is recorded as “low polyreactivity”.

As to “QVQLVESGGGLVQAGGSLRLICAASGRIFAYYAMGWYRHAPGKERELVAAISGSGRTYYADSVKGRFTISRDNAKYTVYLQMNSLKPEDTAVYYCNNVYSFYYTEGYDYWGQVTQVTVSS”, the “polyreactivity (PSR sort gate)” value was “high polyreactivity”.

Turning to “QVQLVESGGGLVQAGGSLRLSCAASGGIFGIYAMGSYRQAPGKERELVAAINGGTSTYYADSVKGRFTISRDNAKNTVYLQMNSLKPEDTAVYYCAADWRYLYYALDYWGQGTQVTVSS”, the “polyreactivity (PSR sort gate)” value is recorded as “low polyreactivity”.

Take “QVQLVESGGGLVQAGGSLRLSCAASGFTFASNAMGWYRQAPWKERELDAGISRTGTTTYYADSVKGRFTISRDNAKNTVYLQMNSLKPEDTAVYYCAASKQAVKYRSQRYYYWGQGTQVTVSS”: the “polyreactivity (PSR sort gate)” value was “high polyreactivity”.

As for “QVQLVESGGGLVQAGGSLRLSCAASGNNLRYYAMGWYRQAPGKERELVAAITSSGGSTYYADSVKGRFTISRDNAKNTVYLKMNSLKPEDTAVYYCAAVFSYSRYNYWGQGTQVTVSS”, the “polyreactivity (PSR sort gate)” value is “high polyreactivity”.

For the sequence “QVQLVESGGGLVQAGGSLRLSCAASGSIFSRNTMGWYRQAPGKERELVAGISSSGSRTYYADSVKGRFTISRDNAKYTVYLQMNSLKPEDTAVYYCAAEHQRSRGRRYYIGYDYWGQGTQVTVSS”, the “polyreactivity (PSR sort gate)” value is listed as “low polyreactivity”.

As for “QVQLVESGGGLVLAGGSLRLSCAASGRSSSSYAMGWYRQAPGKEREFVAAIRSSGGSTSYADSVKGRFTISRDNAKNTVYLQMNSLKPEDTAVYYCAVRKHFVVSYDYWGQGTQVTVSS”, the “polyreactivity (PSR sort gate)” value is listed as “high polyreactivity”.

Take “QVQLVESGGGLVQAGGSLRLSCAASGSIFSQYAMGWYRQAPGKERELVAAITYGGGSTYYADSVKGRFTISRDNAKNTVYLQMNCLKAEDTALYYCAKEFKYWGYPYDYWGQGTQVTVSS”: the “polyreactivity (PSR sort gate)” value was “low polyreactivity”.

Take “QVQLVESGGGLVQAGGSLRLSCAASGYTFFYAMAWYRQAPGKERELVASITSAASTTYADSVKGRFSISRDNAKNTVYLQMNSLKPEDTAVYYCAASHSWWFYPGYYYWGQGTQVTVSS”: the “polyreactivity (PSR sort gate)” value is given as “high polyreactivity”.

As for “QVQLVESGGGLVQAGGSLRLSCAASGGTFVVYAMGWYRQAPGKERELVAAITWIGDSTYYADSVKGRFTISRDNAKNTVYLQMNSLKPEDTAVHYCNAEGWYYLTEYGYWGQGTQVTVSS”, the “polyreactivity (PSR sort gate)” value is “low polyreactivity”.

Consider “QVQLVESGGGLVQAGGSLRLSCAASGSTFQQYAMGWYRQAPGKEREFVARISYGGGSTYYADSVKGRFTISRDNAKNTVYLQMNSLKPEDTAVYYCNAVRKGYYRWVFQNRYYYWGQGTQVTVSS”, for which the “polyreactivity (PSR sort gate)” value is recorded as “high polyreactivity”.

Consider “QVQLVESGGGLVQAGGSLRLSCAASGRIFRPNTMGWYRQAPGKERELVAAISRSGGSTYYADSVKGRFTISRDNAKNTVYLQMNSLKPEDTAVDYCAKRYGGIVGVGANKYEYWGQGTQVTVAS”, for which the “polyreactivity (PSR sort gate)” value was “high polyreactivity”.

On to “QDQLVESGGGLDQAGGRLRLSCAASGFTFGRNAMGWYRPAPGKERELDAASSWSGGSTYYADSVKGRFTISRDYAKNTVYVQMNSLKPEDTAVYYCNKRSRLGRGNRDYWGQGTQVTVSS”, for which the “polyreactivity (PSR sort gate)” value was “high polyreactivity”.

As for “QVQLVESGGGLVQAGGSLRLSCAASGRNFSRNAMGWYRQAPGKERELVAAISSGGRTKYADSVKGRFTISRDNAKNTVYLQMNSLKPEDTAVYYCAATDPRSWYGRGRYDYWGQGTQVTVSS”, the “polyreactivity (PSR sort gate)” value is “high polyreactivity”.

Regarding “QVQLVESGGGLVQAGGSLRLSSAASGRTFQTNAMGWYRQAPGKERELVAAISSTGGSTYYADSVKGRFTISRDNAKNTVYLQMNSLKPEDTAVYYCNAGRTYRYDFWGQGTQVTVSS”, the “polyreactivity (PSR sort gate)” value is recorded as “high polyreactivity”.

Consider “QVQLVESGGGLVQAGGSLRLSCAASGFTFPWNVMGWYRQAPGKEREFVAAISKSAGSTFYADSVKGRFTISRDNAKNTVYLQMNSLKPEDTAVYYCAKPRVPGVHVQEMYYWGQGTQVTVSS”, for which the “polyreactivity (PSR sort gate)” value is on record as “low polyreactivity”.

As to “QVQLVESGGGLVQAGGSLRLSCAASRFLFWSYAMGWYRQAPGKERELVAAISWRGGSTYYADSVKGRFSISRDTAKNTVYLQMNSLKPEDTAVYYCAAERYNGYDYWGQGTQVTVSS”, the “polyreactivity (PSR sort gate)” value was “high polyreactivity”.

With “QVHLVESGGGLVQAGGSLRLSCAASGFTFYAMGWYRQAPGKERELVAAIDQGGDRTYYADSVKGRFTISRDNAKNTVYFQMNSLKPEDTAVYYCAARYRRTWRLIYWGQGTQVTVSS”, the “polyreactivity (PSR sort gate)” value is recorded as “high polyreactivity”.

For “QVQLGESGGGLVQAGGSLLLSCAASGSIFRHYTMGWDSQAPGKERELVAVISSGGNTNYADSVKGRFTISRDNAKNTVYFQMNSLKPEDTAVYYCAARSHRYYSRVNYWGQGTQVTVSS”, the “polyreactivity (PSR sort gate)” value was “high polyreactivity”.

With “QVQLVESGGGLVQAGGSLRLSCAASGSTFQIYTMGWYRQAPGKERELVAAITNGGGSTYYADSVKGRFTISRDNAKNTVYLQMNSLKPEDTAVYYCAAEQRYPLIILYDYWGQGTHVTVSS”, the “polyreactivity (PSR sort gate)” value is “low polyreactivity”.

“QVQLEESGGGLVQAGGSLRLSCAAYGSIIPFYPMGWYRQAPWTERELVAAISDRGGSTYYADSVKGRFTISRDNAKYTVYLQMNSLKPEDTAVYYGAKGGEVSQGYTDEYDYWGQGTQVTVSS”: the “polyreactivity (PSR sort gate)” value is recorded as “low polyreactivity”.

As for “QVQLVESGGCLVQAGGSLRLSCAASGFIFAKYAMGWYRQAPGKEREFVAAISFSGASTYYADSVKGRFTISRDNAKNTVYLQMNSLKPEDTAVYYCAAYWDAEGRRYTRLEYWGQGTQVTVSS”, the “polyreactivity (PSR sort gate)” value is “low polyreactivity”.

As for “PVQVVESGGVLVQAGGSRRLSCAAAGGNFYGNVMGWYRQAPGKERELVADITSVSSTYYADSVKGRFTISRDNAKNTVFLQMKRLKPEDTAVYYCAPEPDHVADSHSGYDYWGQGTQVTVSS”, the “polyreactivity (PSR sort gate)” value is “low polyreactivity”.

Consider “QVQLVESGGGLVQAGGSLRLSCAASGFTLSKYAKGWYRPAPGKERELVAAITGSGVRTYYADSVKGRFTISRDYAKNSVYLELNSLKPEDTAVYYCATGTKKGRYRDELDCWGHGTQVTVSS”, for which the “polyreactivity (PSR sort gate)” value is “high polyreactivity”.

As for “QVQLVESGGGLVQAGGSLRLSCAASGSIFRPYTMGWYRQAPGKERELVATISSTGITNYADSVKGRFTISRDNAKNTVYLQMNSLKPEDTAVYYCAARGRYVTPQPSYDYWGQGTQVTVSS”, the “polyreactivity (PSR sort gate)” value was “high polyreactivity”.

As for “QVQLVESGGGLDQAGGSLRLSCPASGSTFSNYAMGWYRQEPGKERELVAAISVRGGSTYYADSVKGRFTISRDNAKNTVYLQMNSLKPEDTAVYYCNADTDYRDDMDYWGQGTQVTVSS”, the “polyreactivity (PSR sort gate)” value is “high polyreactivity”.

In the case of “QVQLVESGGGLVQAGGSLRLSCAASGITFGYYAMGWYRQAPGKERELVATLTDGGGTKYADSVKGRFTISRDNAMNTVYLQMDSLKPEDTAVYYCAAGLRHVYATEYDYWGQGTQVTVSS”, the “polyreactivity (PSR sort gate)” value is recorded as “low polyreactivity”.

On to “QVQLQESGGGLEQAGGSLRPSCAASGSISDGVPMGWYRQAPGEERELVATTVLGATTNYADSVKGRFTISRGNAKNTVYLQMNSLKPEETAVYYCAAPLRYDKGFSYWGQGTQVTVSS”, for which the “polyreactivity (PSR sort gate)” value was “low polyreactivity”.

Regarding “QVQLLESGAGLVQAGGSLRLICAASVNTFYWYAMGRYRQAPGKERELVAAITWSGGSTHYADSVKGRFTISRDNAKNTVYLQMNSLTPEYTAVYYCAARYFRWWDMGYWGQGTQVSVSS”, the “polyreactivity (PSR sort gate)” value was “high polyreactivity”.

As to “QVQLVESVGGLVQAGGSLRLSCAASAFNFDYNAMGWYRQAPGKERELVAVISSSGSRTYYADSVKGRFTISRDNAKNTVYLQMNSLKPEDTAVYYCAAARIGTLDYWGQGTQVTVSS”, the “polyreactivity (PSR sort gate)” value is “high polyreactivity”.

In the case of “QVQIVESGRGLVQAGGSLRLSCAPSGFNIPTNGMGWYRQATGKEREFVASITWRGGGTYYAESVKGRFTISRDNAKNTVFLQMNSLKPEDTAVYYCAAGRSWSSYWKYDYWGLGTQVTVSS”, the “polyreactivity (PSR sort gate)” value is “low polyreactivity”.

For the sequence “QVQLVESGGGLVQAGGSLRLSCAASGRILVRNAMGWYRQAPGQERELVAAITRTGASTYYADSVKGRFTISRDNPKNTVYLQMNSLKPEDTAVYYCAAVWGLPYWVYRYDYWGQGNQVTVSS”, the “polyreactivity (PSR sort gate)” value is “high polyreactivity”.

With “QVQLVESGVGLVQAGGSLRLSCAASGSIFVPNTMRWYRQAPGKERELVAAITGGGSTDYADSVKGRFTISRDNAKNTVYLQMNSLKPEDTAVYYCNKDYWRDVAQDVLDGYDYWGQGTQVTVSS”, the “polyreactivity (PSR sort gate)” value was “low polyreactivity”.
